Consider four molecules from patent US20140308287A1 (SEA LANE BIOTECHNOLOGIES, published 2014).

Assay [1] concerns the target T1, human ErbB3-Fc (R&D Systems) (human, UniProt P21860 20-643).
T1 construct: Bought protein; also called wild-type ErbB3-Fc fusion; immobilized ErbB3; not shown: Fc part of the bought fusion protein; not described
The experiment in a line: ELISA on ErbB3-Fc (Example 42); format of the parent not stated, the variants were soluble monovalent Sabs. (In general: In an ELISA, binding on a coated surface is turned into a signal by an enzyme label.)

The target in assay [2] is T2, human ErbB3 expressed on the surface of cells (BxPC-3 and other human tumor cell lines) (human, UniProt P21860 20-1342).
T2 construct: SKBR3, PathHunter reporter cells in functional assays; The leader 1-19 is not part of the mature protein; also called cell surface ErbB3; cell surface receptor
The experiment in a line: flow cytometry on BxPC-3 cells, geometric mean fluorescence intensity. The procedure:
(§1) Briefly, BxPC-3 cells were first dissociated using 0.25% trypsin, 0.2% EDTA, washed in cold PBS, 1% BSA, and then resuspended at 3×10⁶ cells/ml. SgGs (described above) were added at the indicated concentrations in Staining Buffer (Becton Dickinson) and incubated at 4 degrees C. for 1 hour. Next the cells were washed in stain buffer and resuspended with 1:133 diluted biotinylated goat anti-human IgG (Southern Biotech #2040-08) and incubated at 4 degrees C. for 1 hour. Cells were then washed in stain buffer and resuspended with Alexa488 conjugated streptavidin (Invitrogen #S11223) and incubated at 4 degrees C. for 1 hour. One microliter of the vital stain 7AAD (Invitrogen #A1310) was added during the last 15 minutes of incubation. Cells were washed with stain buffer and analyzed on a flow cytometer.
(§2) Thereafter only signals arising from this gated population were analyzed. Geometric mean fluorescence intensity for cells stained using the indicated concentrations of SBPs were determined using FLOWJO analysis software and EC50s were calculated using Graphpad Prism.

For a further assay, the target named is T3, EGFR-Fc (ErbB1) (human, UniProt P00533 25-645).
T3 construct: The sentence reads 'human ErbB3-Fc, EGFR-Fc (ErbB1) or ErbB2-Fc'; 'human' is read as applying to all three; not shown: Fc part; not described
The experiment in a line: ELISA on plate-coated EGFR-Fc (ErbB1), detection biotinylated anti-VpreB (Example 52). The source says: (§3) ELISA plates were coated with human ErbB3-Fc, EGFR-Fc (ErbB1) or ErbB2-Fc. Various concentrations of the indicated anti-ErbB3 SBPs were then allowed to bind to the coated wells. Binding was detected using a biotinylated antibody that specifically recognizes VpreB, followed by streptavidin HRP. Detection used a colorimetric HRP substrate.

Assay [3] concerns the target T1, human ErbB3-Fc (R&D Systems). As to the kind of experiment: ELISA, SgG on plate-coated human ErbB3-Fc, anti-VpreB detection. On the procedure:
(§4) Binding was detected using a biotinylated antibody that specifically recognizes VpreB, followed by streptavidin HRP. Detection used a colorimetric HRP substrate. Data was analyzed via using GraphPad Prism.

A further assay deals with T4, ErbB2-Fc (human, UniProt P04626 23-652).
T4 construct: The sentence reads 'human ErbB3-Fc, EGFR-Fc (ErbB1) or ErbB2-Fc'; 'human' is read as applying to all three; not shown: Fc part; not described
As to the kind of experiment: ELISA on plate-coated ErbB2-Fc, detection biotinylated anti-VpreB (Example 52).
From the text: as §3

In assay [4] the target is T1, human ErbB3-Fc (R&D Systems). As to the kind of experiment: ELISA, inhibition of binding of NRG1-beta 1 ECD (0.26 ug/ml) to plate-coated human ErbB3-Fc. On the procedure: ELISA plates were coated with human ErbB3-Fc. Various concentrations of the indicated anti-ErbB3 SBPs were then allowed to bind to the coated wells. […] Detection used a colorimetric HRP substrate.
Data was analyzed using GraphPad Prism.

Assay [5] shares this target. The experiment in a line: ELISA on plate-coated human ErbB3-Fc, detection biotinylated anti-VpreB and streptavidin HRP (Example 52).
From the text: as §3

Assay [6] shares this target. The experiment in a line: ELISA on plate-coated human ErbB3-Fc with 1.85 nM NRG1-beta 1 extracellular domain added before the SBP (+ NRG), detection biotinylated anti-VpreB (Example 43); axis labelled log [Sab] nM. The source says: (§5) The resulting bound SgGs were detected using a biotinylated anti-VpreB, followed by streptavidin HRP colorimetric detection.
In assay [7] the target is T2, human ErbB3 expressed on the surface of …. As to the kind of experiment: flow cytometry on BxPC-3 cells. On the procedure:
as §1, §2

In assay [8] the target is T1, human ErbB3-Fc (R&D Systems). As to the kind of experiment: ELISA, SgG on plate-coated human ErbB3-Fc. On the procedure:
as §4

Assay [9] has the same target. The experiment in a line: ELISA on plate-coated human ErbB3-Fc without NRG, detection biotinylated anti-VpreB and streptavidin HRP (Example 43); axis labelled log [Sab] nM, text speaks of SgGs.
From the text: as §5

For assay [10] the target is unchanged. As to the kind of experiment: ELISA on ErbB3-Fc (Example 42); format of the parent not stated, the variants were soluble monovalent Sabs. The source holds these as a separate data set.
In assay [11] the target is T5, murine ErbB3-Fc (R&D Systems) (mouse, UniProt Q61526 20-641).
T5 construct: Bought protein; also called mouse ErbB3; not shown: Fc part of the bought fusion protein; not described
The experiment in a line: ELISA, SgG on plate-coated murine ErbB3-Fc, anti-VpreB detection. On the procedure: (§6) Binding was detected using a biotinylated antibody that recognizes VpreB, followed by strepatvidin HRP. Detection used a colorimetric HRP substrate. Data was analyzed via using GraphPad Prism.

In assay [12] the target is T5, murine ErbB3-Fc (R&D Systems). The experiment in a line: ELISA, SgG on plate-coated murine ErbB3-Fc. On the procedure:
as §6

T5 sequence (Q61526 20-641 limits assumed): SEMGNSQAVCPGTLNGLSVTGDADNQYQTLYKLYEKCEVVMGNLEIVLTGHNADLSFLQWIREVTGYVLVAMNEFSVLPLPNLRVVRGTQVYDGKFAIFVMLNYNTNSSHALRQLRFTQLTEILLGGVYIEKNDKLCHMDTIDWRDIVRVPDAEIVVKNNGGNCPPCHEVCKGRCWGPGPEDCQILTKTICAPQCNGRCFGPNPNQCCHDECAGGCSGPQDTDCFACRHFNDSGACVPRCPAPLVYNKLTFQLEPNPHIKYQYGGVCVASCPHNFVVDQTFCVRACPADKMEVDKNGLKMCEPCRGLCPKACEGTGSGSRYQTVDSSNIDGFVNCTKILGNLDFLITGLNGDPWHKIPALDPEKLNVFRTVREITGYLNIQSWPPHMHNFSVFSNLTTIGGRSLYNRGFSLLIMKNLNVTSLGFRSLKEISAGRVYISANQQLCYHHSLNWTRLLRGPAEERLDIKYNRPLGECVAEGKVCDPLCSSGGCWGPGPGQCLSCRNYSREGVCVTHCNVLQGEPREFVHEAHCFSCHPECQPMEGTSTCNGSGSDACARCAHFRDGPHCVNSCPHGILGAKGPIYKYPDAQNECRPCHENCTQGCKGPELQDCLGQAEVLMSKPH

B1: 2817-C01 (Parent) (other)
VH: EVQLLESGGGLVQPGGSLRLSCAASGFTFSTYAMNWVRQAPGKGLEWVALISSGGSYKYYADSVKGRFTISRDNSKNTLYLQMNSLRAEDTAVYYCAKDNFILLNSWFDYWGQGTLVTVSS
surrogate light: QPVLHQPPAMSSALGTTIRLTCTLRNDHDIGVYSVYWYQQRPGHPPRFLLRYFSQSDKSQGPQVPPRFSGSKDVARNRGYLSISELQPEDEAMYYCAMGARSSVTHVFGSGTQLTVLSQPKATPSVTLFPPSSEELQANKATLVCLMNDFYPGILTVTWKADGTPITQGVEMTTPSKQSNNKYAASSYLSLTPEQWRSRRSYSCQVMHEGSTVEKTVAPAECS
As for B1, the concentration giving a half-maximal response (EC50) in assay [1] was 0.055 nM.

B2: 2817-C01 surroglobulin (SgG) (other)
VH: B1 VH
light: B1 surrogate light
notes: also called anti-ErbB3 SgG
Consider B2, for which the EC50 was 0.12 nM in assay [2], 0.04 nM in assay [3], 0.138 nM in assay [7] and 0.041 nM in assay [8]. The binding result in the assay with EGFR-Fc (ErbB1) and in the assay with ErbB2-Fc was “no binding (tested: 1000 nM)” throughout. The IC50 in assay [4] stood at 0.99 nM. The entries for the concentration for a half-maximal effect (EC50 (read off the curve)) in assay [5], in assay [6] and in [9] were around 0.05 nM, around 0.3 nM and around 0.2 nM, respectively.

B3: 2716-F05 (Parent) (other)
VH: EVQLLESGGGLVQPGGSLRLSCAASGFTFSNYWMHWVRQAPGKGLEWVALISGGGGNTYYADSVKGRFTISRDNSKNTLYLQMNSLRAEDTAVYYCAKDNEKNLYTWLDYWGQGTLVTVSS
light: B1 surrogate light
In the case of B3, the EC50 in assay [10] came to 0.22 nM.

B4: 2716-F05 surroglobulin (SgG) (other)
VH: B3 VH
light: B1 surrogate light
notes: also called anti-ErbB3 SgG
With B4, the EC50 in assay [2] came out at 0.04 nM; in assay [11] it was 0.06 nM; in [3], 0.05 nM; in [12] it was 0.095 nM; in [7], 0.04 nM; in [8], 0.049 nM. The binding result with EGFR-Fc (ErbB1) and with ErbB2-Fc was “no binding (tested: 1000 nM)” in each case. This molecule also had a half-inhibitory concentration (IC50) in assay [4] of 0.52 nM. Besides, the figures for the “EC50 (read off the curve)” value in [5], in assay [6] and in assay [9] were around 0.08 nM, around 0.7 nM and around 0.5 nM, respectively.

As usually defined, the EC50 is the concentration that produces a half-maximal response. Broadly, the IC50 is the concentration needed to halve the response being measured. Low values mean inhibition by little substance, high ones a need for much substance. What is called EC50 (read off the curve) is the concentration at which the effect is half-maximal. Read a high EC50 (read off the curve) as weaker potency.
